What was measured:
[1] = target: human CD3 on cells (CD3ε) (human, UniProt P07766 23-207); test: cell-based or functional assay
[2] = target: T1, Human CD3ε stalk-Fc(knob)-Avi/CD3δ stalk-Fc(hole) (human); test: SPR, TCB captured by anti-PG antibody, antigen as analyte, 25°C
T1 construct: Heterodimer of CD3 delta and CD3 epsilon ectodomains fused to human Fc with knob-into-hole; also called human CD3ε/δ; CD3 antigen
Description: (§1) For affinity measurements, TCB molecules were captured on a C1 sensorchip (GE Healthcare) surface with immobilized anti-Fc(P329G) IgG (an antibody that specifically binds human IgG₁ Fc(P329G); “anti-PG antibody”—see WO 2017/072210, incorporated herein by reference). The experimental setup is schematically depicted in FIG. 3. Capture IgG was coupled to the sensorchip surface by direct immobilization of around 400 resonance units (RU) using the standard amine coupling kit (GE Healthcare Life Sciences).
(§2) Kinetic constants were derived using the Biacore T200 Evaluation Software (GE Healthcare Life Sciences), to fit rate equations for 1:1 Langmuir binding by numerical integration. The half-life (t_{1/2}) of the interaction was calculated using the formula t_{1/2}=ln2/koff.
(§3) To analyze the interaction to CD3, TCB molecules were captured for 240 s at 25 nM with a flow rate of 10 μl/min. Human and cynomolgus CD3F stalk-Fc(knob)-Avi/CD36-stalk-Fc(hole) were passed at a concentration of 0.14-100 nM with a flow rate of […] through the flow cells for 240 s. The dissociation was monitored for 800 s.

[3] = target: T2, Cynomolgus CD3ε stalk-Fc(knob)-Avi/CD3δ stalk-Fc(hole) (cynomolgus); test: as above
T2 construct: also called cynomolgus CD3ε/δ
Description: as §1, §2, §3

[4] = target: T1, Human CD3ε stalk-Fc(knob)-Avi/CD3δ …; test: SPR on immobilized human CD3ε/δ after stress, relative to sample kept at -80°C pH 6
Description: In order to assess the effect of the deamidation site removal and its effect on the stability of the antibodies, the optimized anti-CD3 antibodies (in TCB format) were incubated for 14 days at 37° C., pH 7.4 and at 40° C., pH 6 and further analyzed by SPR for their binding capability to human CD3ε/δ. Samples stored at −80° C. pH 6 were used as reference. The reference samples and the samples stressed at 40° C. were in 20 mM His, 140 mM NaCl, pH 6.0, and the samples stressed at 37° C. in PBS, pH 7.4, all at a concentration of 1.0 mg/ml. After the stress period (14 days) samples in PBS were dialyzed back to 20 mM His, 140 mM NaCl, pH 6.0 for further analysis.
All SPR experiments were performed on a Biacore T200 instrument (GE Healthcare) at 25° C. with HBS-P+ (10 mM HEPES, 150 mM NaCl pH 7.4, 0.05% Surfactant P20) as running and dilution buffer. Biotinylated human CD3ε/δ (see Example 3, SEQ ID NOs 41 and 42) as well as biotinylated anti-huIgG (Capture Select, Thermo Scientific, #7103262100) were immobilized on a Series S Sensor Chip SA (GE Healthcare, #29104992), resulting in surface densities of at least 1000 resonance units (RU). Anti-CD3 antibodies with a concentration of 2 μg/ml were injected for 30 s at a flow rate of 5 μl/min, and dissociation was monitored for 120 s. The surface was regenerated by injecting 10 mM glycine pH 1.5 for 60 s. Bulk refractive index differences were corrected by subtracting blank injections and by subtracting the response obtained from a blank control flow cell. For evaluation, the binding response 5 seconds after injection end was taken. To normalize the binding signal, the CD3 binding was divided by the anti-huIgG response (the signal (RU) obtained upon capture of the CD3 antibody on the immobilized anti-huIgG antibody). The relative binding activity was calculated by referencing each temperature stressed sample to the corresponding, non-stressed sample.
The experiment was performed as described in Example 4, using the TCB molecules prepared in Example 7.

[5] = target: T3, human GPRC5D on stably transduced CHO-K1 cells (human, UniProt Q9NZD1 1-345); test: flow cytometry on CHO-K1 cells stably transduced with human GPRC5D, performed as in Example 11
T3 construct: whole, on cells; also called CHO-hGPRC5D cells
Description: The binding of the CEACAM5-TCB molecules prepared in Example 7 was tested on CEACAM5 (CEA)-positive tumor cells (LS-180 cells, ECACC #87021202) and CD3-expressing immortalized T lymphocyte cells (GloResponse Jurkat NFAT-RE-luc2P; Promega, #CS176501). Briefly, adherent LS-180 cells were detached, using Cell Dissociation Buffer (Gibco), counted, checked for viability and re-suspended at 2 million cells per ml in FACS buffer (PBS with 0.1% BSA). Likewise, Jurkat suspension cells were harvested and plated for subsequent stainings. 100 μl of the cell suspension (containing 0.2 million cells) were incubated in round-bottom 96-well plates for 30 min at 4° C. with increasing concentrations of the CEACAM5-TCB molecules (4 pM-300 nM). Cells were washed twice with cold PBS 0.1% BSA (FACS buffer), re-incubated for further 30 min at 4° C. with the Alexa Fluor 647-conjugated AffiniPure F(ab′)2 Fragment Goat Anti-Human IgG, Fcγ Fragment Specific Antibody (Jackson Immuno Research Lab #109-606-008, diluted 1:50 in FACS buffer) and washed twice with cold PBS 0.1% BSA thereafter. The staining was fixed for 20 min at 4° C. in the dark, using 150 μl of 2% PFA in FACS buffer per well. Fluorescence was analyzed by FACS using a FACS Fortessa (Software FACS Diva). Binding curves were obtained using GraphPadPrism6.
The binding of the GPRC5D-TCB molecules prepared in Example 7 was tested using CHO-transfectants stably transduced to express human GPRC5D (CHO-K1, ATCC) and CD3-expressing immortalized T lymphocyte cells (GloResponse Jurkat NFAT-RE-luc2P; Promega, #CS176501). The experiment was performed as described in Example 11.

Chain of human CD3 on cells (CD3ε) (P07766 23-207 limits assumed): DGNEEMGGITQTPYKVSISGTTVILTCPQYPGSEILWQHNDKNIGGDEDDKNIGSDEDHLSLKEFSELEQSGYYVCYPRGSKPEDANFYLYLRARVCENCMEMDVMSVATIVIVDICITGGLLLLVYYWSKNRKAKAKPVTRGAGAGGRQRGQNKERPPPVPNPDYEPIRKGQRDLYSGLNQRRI
T3 sequence (Q9NZD1 whole entry): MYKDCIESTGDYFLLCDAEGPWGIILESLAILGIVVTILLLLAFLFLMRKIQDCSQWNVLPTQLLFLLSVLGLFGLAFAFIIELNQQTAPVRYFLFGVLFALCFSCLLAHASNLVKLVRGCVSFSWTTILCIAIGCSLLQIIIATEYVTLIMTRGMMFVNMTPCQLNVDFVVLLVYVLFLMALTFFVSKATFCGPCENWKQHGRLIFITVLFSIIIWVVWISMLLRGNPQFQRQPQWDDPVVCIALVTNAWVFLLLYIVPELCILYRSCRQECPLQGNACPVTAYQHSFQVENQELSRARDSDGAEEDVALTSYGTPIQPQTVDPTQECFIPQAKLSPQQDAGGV

B1: GPRC5D-TCB, GPRC5D CD3 variant P033.078 (bispecific antibody, human IgG1, kappa, L234A L235A)
heavy 1: not shown
heavy 2: EVQLVESGGGVVQPGRSLRLSCAASGFSFSNYGMAWVRQAPGKGLEWVASISTGGGNTYYRDSVKGRFTISRDNAKNTLYLQMNSLRAEDTAVYYCTRHDRGGLYWGQGTMVTVSSASTKGPSVFPLAPSSKSTSGGTAALGCLVEDYFPEPVTVSWNSGALTSGVHTFPAVLQSSGLYSLSSVVTVPSSSLGTQTYICNVNHKPSNTKVDEKVEPKSCDKTHTCPPCPAPEAAGGPSVFLFPPKPKDTLMISRTPEVTCVVVDVSHEDPEVKFNWYVDGVEVHNAKTKPREEQYNSTYRVVSVLTVLHQDWLNGKEYKCKVSNKALGAPIEKTISKAKGQPREPQVCTLPPSRDELTKNQVSLSCAVKGFYPSDIAVEWESNGQPENNYKTTPPVLDSDGSFFLVSKLTVDKSRWQQGNVFSCSVMHEALHNHYTQKSLSLSP
light 1: DIVMTQSPLSLPVTPGEPASISCRSSKSLLHSNGITYVYWYLQKPGQSPQLLIYRMSNRASGVPDRFSGSGSGTDFTLKISRVEAEDVGVYHCGQLLENPYTFGQGTKLEIKRTVAAPSVFIFPPSDRKLKSGTASVVCLLNNFYPREAKVQWKVDNALQSGNSQESVTEQDSKDSTYSLSSTLTLSKADYEKHKVYACEVTHQGLSSPVTKSFNRGEC
light 2: EVQLLESGGGLVQPGGSLRLSCAASGFTFESYAMNWVRQAPGKGLEWVSRIRSKYNEYATYYADSVKGRFTISRDDSKNTLYLQMNSLRAEDTAVYYCVRASNFPSSFVSYFGYWGQGTLVTVSSASVAAPSVFIFPPSDEQLKSGTASVVCLLNNFYPREAKVQWKVDNALQSGNSQESVTEQDSKDSTYSLSSTLTLSKADYEKHKVYACEVTHQGLSSPVTKSFNRGEC
notes: 2+1 IgG CrossFab, inverted; human IgG1 Fc, knob-into-hole, PGLALA; also called P033.078 in GPRC5D-TCB format
EC50 20 h (pM), T-cell mediated lysis of GPRC5D-expressing NCI-H929 cells [1]: 0.41 pM | Kd [2]: 0.547 nM | koff [2]: 0.000948 s⁻¹ | kon [2]: 1.74e+06 M⁻¹ s⁻¹ | t1/2 [2]: 12.2 min | Kd [3]: 0.333 nM | koff [3]: 0.000688 s⁻¹ | kon [3]: 2.07e+06 M⁻¹ s⁻¹ | t1/2 [3]: 16.8 min | binding activity [%] after 2 weeks at pH 6.0/40°C [4]: 99% | binding activity [%] after 2 weeks at pH 7.4/37°C [4]: 98% | binding result [5]: binds

B2: GPRC5D-TCB, GPRC5D CD3 variant P035.093 (bispecific antibody, human IgG1, kappa, L234A L235A)
heavy 1: not shown
heavy 2: EVQLVESGGGVVQPGRSLRLSCAASGFSFSNYGMAWVRQAPGKGLEWVASISTGGGNTYYRDSVKGRFTISRDNAKNTLYLQMNSLRAEDTAVYYCTRHDRGGLYWGQGTMVTVSSASTKGPSVFPLAPSSKSTSGGTAALGCLVEDYFPEPVTVSWNSGALTSGVHTFPAVLQSSGLYSLSSVVTVPSSSLGTQTYICNVNHKPSNTKVDEKVEPKSCDKTHTCPPCPAPEAAGGPSVFLFPPKPKDTLMISRTPEVTCVVVDVSHEDPEVKFNWYVDGVEVHNAKTKPREEQYNSTYRVVSVLTVLHQDWLNGKEYKCKVSNKALGAPIEKTISKAKGQPREPQVCTLPPSRDELTKNQVSLSCAVKGFYPSDIAVEWESNGQPENNYKTTPPVLDSDGSFFLVSKLTVDKSRWQQGNVFSCSVMHEALHNHYTQKSLSLSP
light 1: DIVMTQSPLSLPVTPGEPASISCRSSKSLLHSNGITYVYWYLQKPGQSPQLLIYRMSNRASGVPDRFSGSGSGTDFTLKISRVEAEDVGVYHCGQLLENPYTFGQGTKLEIKRTVAAPSVFIFPPSDRKLKSGTASVVCLLNNFYPREAKVQWKVDNALQSGNSQESVTEQDSKDSTYSLSSTLTLSKADYEKHKVYACEVTHQGLSSPVTKSFNRGEC
light 2: EVQLLESGGGLVQPGGSLRLSCAASGFTFSSYAMNWVRQAPGKGLEWVSRIRSKYNNYATYYADSVKGRFTISRDDSKNTLYLQMNSLRAEDTAVYYCVRASNFPASYVSYFAYWGQGTLVTVSSASVAAPSVFIFPPSDEQLKSGTASVVCLLNNFYPREAKVQWKVDNALQSGNSQESVTEQDSKDSTYSLSSTLTLSKADYEKHKVYACEVTHQGLSSPVTKSFNRGEC
notes: 2+1 IgG CrossFab, inverted; human IgG1 Fc, knob-into-hole, PGLALA; also called P035.093 in GPRC5D-TCB format
EC50 20 h (pM), T-cell mediated lysis of GPRC5D-expressing NCI-H929 cells [1]: 0.31 pM | Kd [2]: 0.377 nM | koff [2]: 0.0013 s⁻¹ | kon [2]: 3.46e+06 M⁻¹ s⁻¹ | t1/2 [2]: 8.89 min | Kd [3]: 0.241 nM | koff [3]: 0.000866 s⁻¹ | kon [3]: 3.61e+06 M⁻¹ s⁻¹ | t1/2 [3]: 13.3 min | binding activity [%] after 2 weeks at pH 6.0/40°C [4]: 100% | binding activity [%] after 2 weeks at pH 7.4/37°C [4]: 97% | binding result [5]: binds

B3: GPRC5D-TCB, GPRC5D CD3 variant P004.042 (bispecific antibody, human IgG1, kappa, L234A L235A)
heavy 1: not shown
heavy 2: EVQLVESGGGVVQPGRSLRLSCAASGFSFSNYGMAWVRQAPGKGLEWVASISTGGGNTYYRDSVKGRFTISRDNAKNTLYLQMNSLRAEDTAVYYCTRHDRGGLYWGQGTMVTVSSASTKGPSVFPLAPSSKSTSGGTAALGCLVEDYFPEPVTVSWNSGALTSGVHTFPAVLQSSGLYSLSSVVTVPSSSLGTQTYICNVNHKPSNTKVDEKVEPKSCDKTHTCPPCPAPEAAGGPSVFLFPPKPKDTLMISRTPEVTCVVVDVSHEDPEVKFNWYVDGVEVHNAKTKPREEQYNSTYRVVSVLTVLHQDWLNGKEYKCKVSNKALGAPIEKTISKAKGQPREPQVCTLPPSRDELTKNQVSLSCAVKGFYPSDIAVEWESNGQPENNYKTTPPVLDSDGSFFLVSKLTVDKSRWQQGNVFSCSVMHEALHNHYTQKSLSLSP
light 1: DIVMTQSPLSLPVTPGEPASISCRSSKSLLHSNGITYVYWYLQKPGQSPQLLIYRMSNRASGVPDRFSGSGSGTDFTLKISRVEAEDVGVYHCGQLLENPYTFGQGTKLEIKRTVAAPSVFIFPPSDRKLKSGTASVVCLLNNFYPREAKVQWKVDNALQSGNSQESVTEQDSKDSTYSLSSTLTLSKADYEKHKVYACEVTHQGLSSPVTKSFNRGEC
light 2: EVQLLESGGGLVQPGGSLRLSCAASGFQFDNYAMNWVRQAPGKGLEWVSRIRTKYNEYATYYADSVKGRFTISRDDSKNTLYLQMNSLRAEDTAVYYCVRASNFPQSYVSYFGYWGQGTLVTVSSASVAAPSVFIFPPSDEQLKSGTASVVCLLNNFYPREAKVQWKVDNALQSGNSQESVTEQDSKDSTYSLSSTLTLSKADYEKHKVYACEVTHQGLSSPVTKSFNRGEC
notes: 2+1 IgG CrossFab, inverted; human IgG1 Fc, knob-into-hole, PGLALA; also called P004.042 in GPRC5D-TCB format
EC50 20 h (pM), T-cell mediated lysis of GPRC5D-expressing NCI-H929 cells [1]: 0.87 pM | Kd [2]: 1.21 nM | koff [2]: 0.00265 s⁻¹ | kon [2]: 2.2e+06 M⁻¹ s⁻¹ | t1/2 [2]: 4.36 min | Kd [3]: 0.599 nM | koff [3]: 0.00163 s⁻¹ | kon [3]: 2.72e+06 M⁻¹ s⁻¹ | t1/2 [3]: 7.09 min | binding activity [%] after 2 weeks at pH 6.0/40°C [4]: 100% | binding activity [%] after 2 weeks at pH 7.4/37°C [4]: 99% | binding result [5]: binds

— US20260125469A1 (Hoffmann-La Roche, published 2026)
